Assay results as given in US20130071374.

Tested on: (His)6PemI

## PemK(His)6
  cleavage of mazG mRNA (native PAGE of digestion products): the addition of PemI inhibited the cleavage of mazG mRNA in a dose-dependent manner
